The supplement of paper PMC12764529

assay: folding stability dG unfold (combined trypsin and chymotrypsin); higher = more stable
Method: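 Folding stability of de novo designed mini-proteins (<80 aa, no Cys; designed by TrROS, TrMRF, ProteinMPNN and the joint model) was measured by cDNA display proteolysis with trypsin and chymotrypsin. Each protease was used at 11 concentrations in a threefold dilution series plus a no-protease condition. K50 was inferred by Bayesian fitting of sequencing counts, and dG unfold was derived against a sequence-predicted unfolded-state K50 (Tsuboyama et al. method). Sequences shown include variable-length N-terminal GS-type padding (SAGGSAGG...) inside a display construct carrying a PA tag. Rows were kept only if the AF2 dimer inter-PAE was >15, to exclude likely homo-oligomers.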

Folding stability dG unfold, < -1 kcal/mol:
SAGGSAGGSAMTLRDIARELAEKHGEPYKIKISHPNGRKREFNPDDLDRIPPGPWEVEIERPSAGGSAGGSA [r18_394_TrROS]
SAGGKAELAANPGVVRVEVELVDPSGPVALPTREYLYPEGDPAALRAAIEAEIPADLAVARVTFTRLGSAGG [r13_849_JUSTAS]
SAMDAKELAEEIADEFAPKFPNIKPKKVTVEPTGDHYEGNIEWEMPNGRPMRVEVTVEKDGNIEDIEFHSAG [r14_719_TrROS]
SDEVSRPVDVRYYITLTEPPTSRPRRGPTDELEVESERPVTVTEMPAGQEEAVRAELEPRGVAVSVTPVVSA [r9_1209_JUSTAS]
DMDFKVEDIKVDPDDGKVKIEMPIPNPNMPIAIFAPNGKIKDVKWEHYKEDGRMKIEIPVKSPDEVRAFIFS [r1_138_TrROS]
SAGGTVREIKEILKEKGWPVKNVEPGPNGNYTVQLRRPRGKPFKINIPSDNPEEQQALREAIPPDFVSAGGS [r16_821_TrROS]
SAGGSAGGSAGMTPLYFRVERVDPASGGSLEEVVEIDPAEREAVVEELRAVPGLVRVELVSAGGSAGGSAGG [r17_438_JUSTAS]
SAGGSAGGSAIVEKIAKEFGFPAKIEVKRERNPGKWVVIPVRVRDPNGGKTWERKIHLPPNQSAGGSAGGSA [r18_313_TrROS]
SASVVDLETDGSMSVEEVVERFKKENPNVKEVKVTTEALPDEPKYRITLTITEDKGKTEENLKKTKELKSAG [r14_645_JUSTAS]
SAGGSAGGSASAEELAEALRREHPDAEVTVTVTPVPREVGPRPVLEREVTVESVRSPEEPASAGGSAGGSAG [r3_118_JUSTAS]
DNMDMEPEGYDPDNGHYEWEMRTDNQWTEMTMRPKPRIPIPLEELKNIADYLADQNPDNKEKAEKIAEKLAS [r1_330_TrROS]
SAGGSTVTVEVETEEEAEALLQGLPELEEVVVVIPGEGEPVEKPVKIEPPAPGVLGETPLPRPSPRLLSAGG [r13_183_JUSTAS]
SAGGSAGGSGMPIVVTHPSGVGLDEYIPEPYVVTMREPDSVIKVTYDPATGTVTTEVDDGAARSAGGSAGGS [r12_243_JUSTAS]
SAGMPRLVTVEMVVLRVVPVYDPEGKPVREEPREERRTRTAPLAEAQAEIDALPPDEEVTEILRVEPESAGG [r19_114_JUSTAS]
SAGGSAMFEVRKLSEDPSTGVTTELITLPDGKEVTVTTTTDSSGNPTVTVTFPDGTVLSLEEVELESAGGSA [r15_832_JUSTAS]
SAGGSAGGSAGGIKPGDKVRIMQMDKNGEMRGPVEIDNVEDGKITIKLPPPYRIMIQPYSAGGSAGGSAGGS [r10_1257_TrROS]
SAGGSAGGSLVELEEEDPSVPVRRRYFIEKPSDGKVKVKEETVVPEPGEVVRSERVISLEEFEKSAGGSAGG [r6_652_JUSTAS]
SAGGSAGGSAGGSNIKELAKELWDKNPGPRPIRFKGNGYKIRFQMPPEGRLRPVEIEKNSAGGSAGGSAGGS [r4_438_TrROS]
MTRTIVAEDMSIEEVKERIEALGAAEPEKGTTVVVEYPGNPEELKKLPIDKIEPREEPERESLVATKTFPAS [r1_467_JUSTAS]
SAGGSAGGSAGSEKLEKIKEELKKKGYNDVEVKPAGPDPSVVLVKVKENKDIIIKIENEESAGGSAGGSAGG [r11_765_JUSTAS]
SAGGSAGGSAMTSVKRSSGSWSITITTPDSTTTTTKAATEEEVQAEVEELKKPGIKVELSPESAGGSAGGSA [r18_103_JUSTAS]
SAGGSAGGSAGIKVDQNPESNMFSVKIRNDGKEKTIEIDMPPGEPPDIDDLAKKLGIEVVSAGGSAGGSAGG [r11_1053_TrROS]
SAGGSMTELIPTPPSATTLNVTKTVPDPRTGTTVTTNVTVEVVPEGDGYVATVYYDPSGRPVKRSLSAGGSA [r2_123_JUSTAS]
SAGGSAGGSAGGMEDVKLLSKSYIPETNELEVTVEIPGGELVNIPLKPGVTDEDVLKLISAGGSAGGSAGGS [r10_984_JUSTAS]
SAGGSAGGSPSITIEKDKEKPVYKVTVYTPNGEKKVFENPEGKKVTTDSNGGEIYIDDVKINVSAGGSAGGS [r12_346_TrMRF]
SAGGSVDVDEEEAEKLIEEALKKGLEVTITARLPDGGVRVLKYEGPDRKRTVIEELPVPPSPLNPALLSAGG [r13_839_JUSTAS]
SAGGSGTTSPVLVEETVFTDGSATYTRKKVELEEVERPPVPPVEIPEEAREAGLAGDYEAAEAILASAGGSA [r2_196_JUSTAS]
SAGGSAGGSAGGNIEIEVERNPENGYYTVEIKFNNPPIEIMVPRGMPKEQAKDWAKDLISAGGSAGGSAGGS [r10_192_TrROS]
SAGASLAPGESAAFTVTTTTTTTESLPLPDGTTVTTTSTTTTTTAHTVTFPAVPVVTMPPDATDPAVRASAG [r5_770_JUSTAS]
SAGGFKPRTINIPAKPGALRNILNDLREKSPNYMVHVTNPDKGKPRHWPLDDLKDMPGPFEFRVMKMPKSAG [r5_437_TrROS]
SAGGPAEVKIPIMKMEPPKPERVYDPDDGQERWKMEHQMRMEMIPITIRADDNPEEANDIANDFGITSAGGS [r16_467_TrROS]
SAGGSAGGSSMTPVSSTRSSPSNSVTYTTSRIPIDPSPGKVLNVTTTYSPDPSVTTTTTTVEPSSAGGSAGG [r6_13_JUSTAS]
SAGGSAGGSMDDTEEESSSVSRFLENGERYTTRTKTTTRIRPDGTEEVEVEVTTTPLPPDVPLSAGGSAGGS [r12_927_JUSTAS]
SAGGSAGGSNGNYRIKIKIRKPNGEPKSQHTFNIPSPEQIKESLAQQPGFPPDRIEDVEVGPYSAGGSAGGS [r12_182_TrROS]
SAGMTPEELEAGRPVERTIPLEIQHPEGNPIATYNITGTLTMEELKKLKEEIREEAKKKGIPPNLNTSLSAG [r5_606_JUSTAS]
SAGMKITFPDGFKEIEVYEDPNYPYIEIPLPGGSIRYDLKDGPIEIEPPGDNRPIRFPIPPGDTITLPSAGG [r19_138_TrROS]
SAGGSAGGSAGDNGKPEVKPVRIPIFIPGPKEQAKRIANYLYGFGMPIDVEVFDPDGKPISAGGSAGGSAGG [r11_703_TrROS]
SAGGSAGGSAGTRTINMPNPHQARELIKEQPPGKPITIHMPNPEWAKELADAPGVPIQMHSAGGSAGGSAGG [r11_1071_TrROS]
SAGGSAKIVIPGMSPSMIRHAIKEGVKKIHIVWPNPEQAKGFKKELEKEDGIPIKVVPAEEAKKLESAGGSA [r15_243_TrROS]
SAGGSAGGEKTASFKVKGNLVAKGVTTFYSPTSDEYTIETEIEKVPPGPKPEITPEEIAKNYLLSAGGSAGG [r6_148_JUSTAS]
SAGGSAGGSPPKPITIMAPYDSPEEAMDKAEEIADELANEGYDIKDVEIEYHPNNGYAMVRIRSAGGSAGGS [r20_155_TrROS]
SAGGSAGGSAAPIPPDQSATSLTLLPDGTVRKTTTTYPPPEFVTTTTTTIPISPEEGAAAGSAGGSAGGSAG [r3_437_JUSTAS]
SAGGSAGGSAEPDPSSPEPYEVLEVVPRTIVSRVEQPGNPQLLRQTVDVVIIKNPSNGLLDSAGGSAGGSAG [r3_391_JUSTAS]
SAGGSAGGSAGMKIFKSKEEAKKAAGPPVELKVKKVPPGSIGKGDPNDTAYLVELKPKEKSAGGSAGGSAGG [r11_168_TrMRF]
